Test results as given in the DeepSol protein solubility set.

test: soluble on expression in E. coli; label from the status in PepcDB or PDB records

Sequence	soluble on expression in E. coli
MGSDKIHHHHHHMTRSGIGIRTAQQQSGRLTGQIHVYDGAGKGKSQAALGVVLRSIGLGIRDQWQSRVLLLRFLKGPGRTYDEDAAIEALQQGFPHLIDQVRTGRAEFFGPDAISRFDRQEARRGWDIAKGAIVSGLYSVIVLDELNPILDLGLLPVDEVVQTLRQKPPQVEVIATGRGAPPQLLEIADLHSEMIAHANPAVAPVGMEGIEIYTGEGKGKSTSALGKALQAIGRGIGQDLSHRVLILQWLKGGSGYTEDAAIQALRQSYPHLVDHQRSGRDAIVWRGQQQEIDYIEAERAWEIARAAIASGLYKTIILDELNPTVDLELLPEEPILQALLRKPRDTEVIITGRCKQIPAYFHLASVHSEMVCHKHYAERGIELKRGVDY	not soluble
MGSDKIHHHHHHMTKFLIDSLQPKLVAQFARIIDRKQLAQSYLFVGPKGAGKLALAEWIALRLFCQNVQDGAPCGQCPECERILNHNHPDVMVVKTETQSIKVDDIRGLKQEMSKTGVEGNQRVFVVEDADKMTAGAANSLLKFFEEPVPGMTVILTATSKNQLLPTILSRAQVITFQSPDRSAVIAKLEEGGATSQMARVAGRLTGNVADAQALLASATFQDRVTKVFQLLERLADHDPESFVRVQTQLLPIAKDADSQRQVLALIGLAYADALNQHFQVTSMQQLDLPAIGVLAQRSSEQLTTALQAILTAQVRLSQNVTFQSATEQLMLKLLEG	not soluble
MKKSRYTETQIVKILKEVEAGRLVKEICREYGISDATYYNWKAKYGGMESSDIKRLKDLEEENRRLKQMYAELSLDHKILKDIVEKKLLEHHHHHH	not soluble
MGSDKIHHHHHHSDDNKTTGATYDPNQPVTVESFMPVEGKLREKVIVKGSNFGTDKSKVKVYFVDEAAERLSTVIGIDNNTLYCLAPRQLPGGNRIKVIVDGKEVTTDGTFKYEQAQNVSTISGSASKDGNDDGDLASAKFKYMWGIAAVGNNTVLAYQRDDPRVRLISVDDNKVTTVHPGFKGGKPAVTKDKQRVYSIGWEGTHTVYVYMKASGWAPTRIGQLGSTFSGKIGAVALDETEEWLYFVDSNKNFGRFNVKTQEVTLIKQLELSGSLGTNPGPYLIYYFVDSNFYMSDQNLSSVYKITPDGECEWFCGSATQKTVQDGLREEALFAQPNGMTVDEDGNFYIVDGFKGYCLRKLDILDGYVSTVAGQVDVASQIDGTPLEATFNYPYDICYDGEGGYWIAEAWGKAIRKYAVE	not soluble
MVYYEIIKDIVFTYNLQFTHLIHNDRISEVNLGGVTMRSIITQICNGVLHGQSYQSGSNDLDKGNSEIFASSLFVHLNEQGKEIIKHKDSDDKIVIGYTKDGMAFQIVVDGFYGCERQAVFSFIDNYVLPLIDNFSLDLTRYPDSKKVTESLIHTIYSLRSKHAPLAEFTMSLCVTYQKDEQLFCAGFGIGDTGIAIKRNEGTIEQLVCHTEVDGFKDAFDNYSSANIDLVIERNSVFNTKVMPGDELVGYTYVPPMLEMTEKEFEVETVDGKKINKRIVRHLNLDPGNFDDKDPLFSQLLQVVKSKQKQLVEQAKETGQIQRFGDDFTVGRLVIPDQLLINQLRIHALSIGVSDGLLSYIKNENENKGFLGIYGFFTGADKNIEKATLYKNLIAKYQNNHFISLIILSALVSDSKTPLMTQYLVGYLDFPSKALLANKITELLLKELENPDMREILGSRLATDVIEELETKIIRYIHNPAGSDIHSTLNLWTADKIKAATNSSLTI	not soluble
ESYAIFSLNAQFDALTINKARKLYRGKTRLLQGQRIELSDWPETSVERTEFYRYLLNKNLAQMNAHWASLSFSGKARPPKVIDQPSIEILLAWMREQPNRIGYAPVDSLPSDAHVLYVV	not soluble
SQTREDSVYLAKLAEQAERYEEMVENMKAVASSGQELSVEERNLLSVAYKNVIGARRASWRIVSSIEQKEESKEKSEHQVELIRSYRSKIETELTKISDDILSVLDSHLIPSATTGESKVFYYKMKGDYHRYLAEFSSGDAREKATNSSLEAYKTASEIATTELPPTHPIRLGLALNFSVFYYEIQNSPDKACHLAKQAFDDAIAELDTLSEESYKDSTLIMQLLRDNLTLWTSDISESGQEDQQQQQQQQQQQQQQQQQAPAEQTQGEPTK	soluble
MGSDKIHHHHHHMNNYNDTIRNLDNIVYKPNNLMITNVKEEKQNAEYAGCIFHLNNKTIRFRKSKITPNKIGQFVSFWEKGDNMQNQAFSYNAAPDLLVITCIDDNKLGQFIFPKEILLKEKILRTENQKGKMAMRIYPIWDTPVSNQAKKSQLWQIQYFVDLSNHNNLTIDELLNLYS	not soluble
MRHLRFENLTEEQLKRLAKILTENLKGGEVVILSGNLGAGKTTFVKGMIRAIGLDEKMVKSPTFTLMNVYPGLKTIYHLDLYRLQDTDFLSLDVEDILEDEDGIMVVEWGDLFDGFWPEDSIKVKIEIADESHRNVEILIPEEVNFLVEKIERYRKELQNT	soluble
MGSDKIHHHHHHMAITIQFSNYALKTDETLIQRIQFVYSPLNELFRSLHVLLNPRHHGTNIDWVIRIQNKLTKEFYENLHYFRLFYELGVSPILLCNFRYHATTIEEEIQNLKKFLDELSTAQLIEHLEKVTSDRENSFIPTLARGLEWKDFSLNKDNQLLSDLRKDASSVYQHLFSFVDWYRQEIFDETWESKDIQRKLLTEIQHQASFLKESGFKAMFNHLQIDRIHWRKDRLVIIKPFDKDIQLKDSDSIMLLPSYFIWPHLFVESFNQGIAVTYDITEQPSYYNATPENLITIFKALSDPVRLQIMNYVIDKPSTTQSLAQILVMSNSSVSRHLQILKEANLLTTTKAKKFVLYEPTQLITQLMPNFYHFFKN	not soluble
AIAVQKLENIPALVHLKEKNIISIRVFLQGRSIVGIQLNYNDNEDGQVYGSTAGKEMVARLSKEEHIIGVEGTYNPSALTQIIFTTNQPRQLMVGYHVGNYQYSSYPDDPSLVLKGACVSWRAGGIKSILFLWGSENSSCVKYGHSG	soluble
MMDSCIRIAGIIGESIVDGPGIRLVVFAQGCPHHCPGCHNPETHAYEGGKSVAIAEILQRLAMNPLLDGITLSGGEPFAQAAGFALLAQSARQRGFHVMTYSGYTYEELTASSEQNPAWALLLEQTDLLVDGPFQLAERNLLLPFRGSENQRVIDVQESLRQGKVVLASVLEHHHHHH	not soluble
MAHHHHHHMADTHFFAEANVLDDPRETTNAYKEIKYDLLRIERSINTEVRKRIEANKNIQQLIEHTANDMINKVLNKITTKIENISFELDKIIKKCDELEKMVGQIRLTLPTKIQTEMMGLKREVSDFFILLNKYANNRKKRNNVLFSKMENMNAYVSNKIHSEVSFTEDDFLFFRRESAKLLASDSDDEQGFRDAFLQEVEEIRDALALTVKAREQSDDDIIQVGAVRCGGAVQRCDVMRWDETRWAYFR	not soluble
MSLTLTIEEIAKTKKLLVVSDFDGTIAGFSKDAYNVPINQKSLKAVKDLSQQADTDVVILSGRHLEGLKTVLDLGQYDITMVGSHGSEDSSRPRTLTPEEVARLAKIEADLEKIVDGIEGAFVEIKPFHRVLHFIRVSDKDKVQGILAQAAHVDSSGLKVTNGKSIIEYSISSTTKGTWLKEYVDRTEPTGVIFLGDDTTDEHGFKALENDDRALTVKVGEGDTAAKTRVDDVDNVGIFLEKLAYHRMQYAESVRLGEGHHHHHH	soluble
MSTVNVQIGLHELLNGSNAQIQLSVPQLVEKVLMRNEGKLTSTGAVSASTGKYTGRSPKDKFIVKEASVADKIAWGAVNQPISEEHFNKLYTKVLEYLKEKEELFVFKGFAGADRNYRLPIQVINEYAWHNLFVHQLFIRPTEEELTTHESEFTIVSAPNFKADPAVDGTNSEAFIMVSFEKRIVLIGGTEYAGEMKKSIFSIMNFLLPEQDILSMHCSANVGEEGDVALFFGLSGTGKTTLSADPNRKLIGDDEHGWSDNGVFNIEGGCYAKCVNLSHEKEPQIFDAITFGSVLENVIINDQTRIADYNDTTLTENTRAAYPMHAIDNIILPSVAGHPNTIIFLTADASGVLPPISKLSKEQAMYHFLSGYTSKLAGTERGVTSPQATFSTCFGSPFLPLDASRYAEMLGEKIEKHDAKVFLVNTGWTGGEYGVGKRMNLGYTRAMIQAALNGELAKTETAKHDIFGLEVPLHVPGVPDEVLMPEQTWADKAAYKAKAIELANEFKANFKKFDSVSEDIINLGGPIA	not soluble
MSSAQFDHVTVIKKSNVYFGGLCISHTVQFEDGTKKTLGVILPTEQPLTFETHVPERMEIISGECRVKIADSTESELFRAGQSFYVPGNSLFKIETDEVLDYVCHLEG	soluble
VSEIKTLVTFFGGTGDLAKRKLYPSVFNLYKKGYLQKHFAIVGTARQALNDDEFKQLVRDSIKDFTDDQAQAEAFIEHFSYRAHDVTDAASYAVLKEAIEEAADKFDIDGNRIFYMSVAPRFFGTIAKYLKSEGLLADTGYNRLMIEKPFGTSYDTAAELQNDLENAFDDNQLFRIDHYLGKEMVQNIAALRFGNPIFDAAWNKDYIKNVQVTLCEVLGVEERAGYYDTAGALLDMIQNHTMQIVGWLAMEKPESFTDKDIRAAKNAAFNALKIYDEAEVNKYFVRAQYGAGDSADFKPYLEELDVPADSKNNTFIAGELQFDLPRWEGVPFYVRSGKRLAAKQTRVDIVFKAGTFNFGSEQEAQEAVLSIIIDPKGAIELKLNAKSVEDAFNTRTIDLGWTVSDEDKKNTPEPYERMIHDTMNGDGSNFADWNGVSIAWKFVDAISAVYTADKAPLETYKSGSMGPEASDKLLAANGDAWVFKG	soluble
MGSDKIHHHHHHMEVASATNNPVQNPAGALAAPGNDAASLKNEFMTLMIAQIKNQDPTKPLNSAEYISQLAQFSQVESLEGMRKNQSNQMIMMENLGIVQSASLIGKNAMVPVSEFKLDGETVEGKVYLENAVEALDIEIVNSEGQVVHTMQLGAQAVGDIRFAIDPDELGLEKGQYEIKAKATLGENSLVAPTYIKAPIERIHFSSASGMMMAEMGHGVGVISVLNISEVS	not soluble
MHYDVIVIGGGPSGLMAAIGAAEEGANVLLLDKGNKLGRKLAISGGGRCNVTNRLPLDEIVKHIPGNGRFLYSAFSIFNNEDIITFFENLGVKLKEEDPGRMFPVSNKAQSVVDALLTRLKDLGVKIRTNTPVETIEYENGQTKAVILQTGEVLETNHVVIAVGGKSVPQTGSTGDGYAWAEKAGHTITELFPTEVPILSNEPFIRDRSLQGLALRDINLSVLNPKGKAIISHKMDMLFTHFGLSGPAALRCSQFVVKALKKFKTNTIQMSIDALPEENSEQLFQRMLKQMKEDPKKGIKNVLKGYVPERYFLFLLEKNEIDGSEQAGQVSHEKIRALVKDFKEFTVNVNGTQSIEKAFVTGGGVSVKEINPKEMSSKFTNGLYFCGEVLDIHGYTGGYNITSALVTGRIAGTTAGENAKMQY	soluble
MGSDKIHHHHHHMIKIKRGLDLPISGAPEQRIEAARPVRSVALIGFDYHGMKPTMAVQVGDRVKLGQVLFTDKKNPSVSYTAPGAGVVSAIHRGEKRVLQSVVIDLDGDEQLEFARYPADKLATLSAEQVRDNLLQSGLWTALRTRPFSKVPDPESSPSSIFVTAIDTQPLAADPQVVIAEQGEAFQAGLTVLGRLARVFLCKAEGVSLPGEALSGVTAQAFSGPHPAGLPGTHIHFLDPVGAGKSVWNLNYQDVIAIGKLFTTGQLWTERVIALAGPVVEKPRLVRTRLGANLDELAAGQLQPGNNRLISGSVLGGRTAHGAYAYLGRYHLQLSCLKEGDQREFLHYLRAGVEKHSLLNVFVSRLLGGKRFAFTTSTNGSPRAMVPVGNYEAVMPLDILPTQLLRYLIVGDTEMAQKLGALELDEEDLALCSYVCAGKYEYGPILRDNLARIEQEG	not soluble
